According to patent US20170088634A1, “TREATMENT OF NEUROTRAUMA USING ANTIBODIES TO LYSOPHOSPHATIDIC ACID” (priority 2012, published 2017):
Like-named read-outs stand apart in the source and are kept apart here. Marks after values point to notes of the source that are not given here.

Columns and labels:
hNS/PC neurospheres [1] = test: Neurosphere formation; format: cell-based, human; conditions: LPA 10 uM
Description: (§1) Neurospheres were used to model the role of LPA in neuronal differentiation as described in commonly-owned U.S. patent application publication no. US20110076269 and U.S. Pat. No. 8,604,172. […] LPA also interferes with an additional differentiation step, namely, the differentiation of NSC toward mature cells.
Anti-LPA antibodies have been found by the inventors to block LPA inhibition of neurosphere formation, as described in commonly-owned U.S. patent application publication no. US20110076269 and U.S. Pat. No. 8,604,172.

hNS/PC neurospheres [2] = test: Neuronal differentiation of plated neurospheres (neuron-forming neurospheres); format: cell-based, human
Method: as §1
Using the same conditions used in Example 2, above, for LPA treatment alone, plated neurospheres were treated with 10 μM LPA alone, or with anti-LPA antibody B3 or B7 (1 mg/ml) alone, or with 10 μM LPA in combination with 1 mg/ml of antibody B3 or B7. Similarly, cells were treated with 10 μM LPA alone, humanized anti-LPA antibody LT3015 alone (1 mg/ml), or with 10 μM LPA in combination with 1 mg/ml LT3015. The percent of neuron-forming neurospheres was quantitated as in Example 2 (beta-tubulin staining and quantification of neuron-forming spheres, as described in Dottori, et al (2008)). […] Neurosphere samples treated with B3 antibody alone had neuron-forming neurospheres equivalent to control (100%). […] The antibody B7, under similar conditions, had little to no effect in this experiment (37.00±5.31% of control).
Using the conditions described in the Example above, […] were plated onto laminin for neuronal differentiation in NBM medium (3 days), with or without LPA (10 μM), with or without antibody to LPA at 1 mg/ml (B3, B7, or the humanized antibody LT3015, tested singly with or without LPA).

adult mouse NSC = test: Neuronal differentiation of adult mouse NSC; format: cell-based
Description: However, and similarly to data obtained in human NSC, LPA inhibited the neuronal differentiation of adult mouse NSC by maintaining them as NSC when plated in conditions normally inducing neuronal differentiation. […] These effects were independent of apoptosis or proliferation.

SKOV3 cells = test: Apoptosis: Taxol induced caspase-3 activation in SKOV3 cells, LPA protection; format: cell-based; conditions: Lpathomab, 1 mM Taxol, 1 mM 18:1 LPA, SKOV3, n = 1
[3] = Competition ELISA, competitor lipid 18:2 LPA; format: binding; conditions: maximum inhibition
Description: (§2) Although polyclonal antibodies against naturally-occurring LPA have been reported in the literature (Chen, et al., Bioorg Med Chem Lett. 2000 Aug. 7; 10(15):1691-3), monoclonal antibodies to LPA had not been described until Sabbadini, et al., U.S. patent application publication no. 20080145360, and U.S. Pat. No. 8,158,124, both of which are commonly owned herewith. The former publication describes the production and characterization of a series of murine monoclonal antibodies against LPA and the latter describes, among other things, a humanized monoclonal antibody against LPA. IC50: Half maximum inhibition concentration; MI: Maximum inhibition (% of binding in the absence of inhibitor); ---: not estimated because of weak inhibition. A high inhibition result indicates recognition of the competitor lipid by the antibody.

human IL-8 = test: LPA-induced IL-8 release in SKOV3 conditioned media; format: cell-based; design: dose or concentration left out as unconfirmed; conditions: Lpathomab 18:1 LPA, SKOV3, n = 3
[4] = Surface plasmon resonance (BiaCore) and direct binding ELISA of LT3000; conditions: Table 12
Description: (§3) The murine antibody is a full-length IgG1 k isotype antibody composed of two identical light chains and two identical heavy chains with a total molecular weight of 155.5 kDa.

human IL-6 = test: LPA-induced IL-6 release in SKOV3 conditioned media; format: cell-based; conditions: Lpathomab 300-600 mg/mL, 1 mM 18:1 LPA, SKOV3, n = 3
[5] = cited from earlier work
Solubility of antibody = format: physicochemical; conditions: 6.6 mM phosphate, 154 mM sodium chloride, pH 7.4
[6] = Competition ELISA, competitor lipid 14:0 LPA; format: binding; conditions: maximum inhibition
Description: as §2

SKOV3 cell migration = test: Migration assay, SKOV3 cells triggered by LPA; format: cell-based; conditions: Lpathomab, 1 mM 18:1 LPA, SKOV3, n = 3
[7] = cited from earlier work; remark: listed apart in the source
SKOV3 cell invasion = test: Invasion assay, SKOV3 cells triggered by LPA; format: cell-based; design: dose or concentration left out as unconfirmed; conditions: Lpathomab 14:0 LPA, SKOV3, n = 2
[8] = cited from earlier work; remark: listed apart in the source
[9] = Competition ELISA, competitor lipid 16:0 LPA; format: binding; conditions: maximum inhibition
Description: as §2

[10] = Competition ELISA specificity, competitor lipid DSPA (distearoyl PA); format: binding; conditions: n = 3
Method: (§4) The specificity of the anti-LPA mAbs was assessed for their binding to LPA-related biolipids such as distearoyl-phosphatidic acid, lysophosphatidylcholine, SIP, ceramide, and ceramide-1-phosphate.

[11] = Competition ELISA, competitor lipid 20:4 LPA; format: binding; conditions: maximum inhibition
Description: as §2

[12] = Competition ELISA specificity, competitor lipid Cer; format: binding; conditions: n = 3
[13] = Competition ELISA specificity, competitor lipid S1P; format: binding; conditions: n = 3
interleukin-8 (IL-8) = test: IL-8 release from ovarian cancer cells; format: cell-based
Description: Five humanized variants were further assessed in in vitro cell assays. LPA is important in eliciting release of interleukin-8 (IL-8) from cancer cells.

[14] = Binding affinity of humanized, chimeric and murine anti-LPA antibodies
[15] = Competition ELISA, competitor lipid 18:1 LPA; format: binding; conditions: maximum inhibition
Description: as §2

[16] = Specificity / cross-reactivity profile; format: binding
[17] = cited from earlier work; remark: listed apart in the source
[18] = Competition ELISA specificity, competitor lipid C1P; format: binding; conditions: n = 3
[19] = cited from earlier work; remark: listed apart in the source
[20] = Competition ELISA specificity, competitor lipid LPC; format: binding; conditions: n = 3
Method: as §4

[21] = Specificity of LT3000 against other lipids and proteins; format: binding; conditions: over 100 different bioactive lipids and proteins, including over 20 bioactive lipids
Description: as §3

Apparent Tm of antibody = format: physicochemical; conditions: pH7.4

lysophosphatidic acid [LPA]
neurosphere formation, LPA (hNS/PC neurospheres [1]): inhibited | decrease in neuron-forming spheres (hNS/PC neurospheres [2]; 10 uM LPA): ~80% | neuron-forming spheres, LPA alone (Example 4) (hNS/PC neurospheres [2]; 10 μM LPA, 3 days): approximately 26 % of control | neurosphere formation or growth of mouse NSC (adult mouse NSC): did not modify | βIII-tubulin expression (differentiated neurons) (adult mouse NSC; LPA (10 NM), three days, untreated 57.12±18.42%): 26.25±2.08 % of total cells | nestin positive (undifferentiated NSCs) (adult mouse NSC; LPA (10 NM), three days, untreated 58.01±6.20): 87.55±3.20 % of total cells

B1: B7: murine anti-LPA monoclonal antibody, full-length IgG1k; VH SEQ ID NO: 3, VL SEQ ID NO: 4 (antibody, V domains shown)
VH: QVQLQQSGAELVRPGTSVKVSCKASGYGFINYLIEWIKQRPGQGLEWIGLINPGSDYTNYNENFKGKATLTADKSSSTAYMHLSSLTSEDSAVYFCARRFGYYGSGNYFDYWGQGTTLTVSS
VL: DVVMTQTPLSLPVSLGDQASISCTSGQSLVHINGNTYLHWYLQKPGQSPKLLIYKVSNLFSGVPDRFSGSGSGTDFTLKISRVEAEDLGVYFCSQSTHFPFTFGTGTKLEIK
Apoptosis % Induction (over LPA + TAXOL taken as 100) (SKOV3 cells): 79% | MI, competitor lipid 18:2 LPA [3]: 100% | IL-8 Release % Inhibition (over LPA taken as 100) (human IL-8): 20% | Kd [4]: 0.001 to 0.05 nM | neuron-forming neurospheres, LPA plus antibody (pool of data) (hNS/PC neurospheres [2]; 10 μM LPA in combination with 1 mg/ml antibody): 37.00±5.31 % of control | number of neurons in neurospheres (comparison between antibodies) (hNS/PC neurospheres [2]; 10 μM LPA plus antibody 1 mg/ml): lesser number of neurons | neuron-forming neurospheres, LPA plus antibody (Example 4) (hNS/PC neurospheres [2]; 10 μM LPA, antibody 1 mg/ml, 3 days on laminin in NBM medium): 50 % of control | IL-6 Release % Inhibition (over LPA taken as 100) (human IL-6): 23* % | IC50 ([5]; competition ELISA, read-out: 16:0 LPA IC50): 483 nM | 16:0 LPA MI ([5]; maximum inhibition): 62.9% | Solubility (Solubility of antibody): >40 mg/mL in 6.6 mM phosphate, | MI, competitor lipid 14:0 LPA [6]: 61.3% | Migration % Inhibition (over LPA taken as 100) (SKOV3 cell migration): 35* % | IC50 ([7]; competition ELISA, half maximum inhibition concentration, read-out: 14:0 LPA IC50): 105 nM | 14:0 LPA MI ([7]; maximum inhibition (% of binding in the absence of inhibitor)): 61.3% | Invasion % Inhibition (over LPA taken as 100) (SKOV3 cell invasion): 95* % | IC50 ([8]; competition ELISA, read-out: 18:2 LPA IC50): 1490 nM | 18:2 LPA MI ([8]; maximum inhibition): 100% | MI, competitor lipid 16:0 LPA [9]: 62.9% | MI, competitor lipid DSPA [10]: 0% | MI, competitor lipid 20:4 LPA [11]: 67% | MI, competitor lipid Cer [12]: 1% | MI, competitor lipid S1P [13]: 2.7% | IL-8 release from ovarian cancer cells (interleukin-8 (IL-8)): reduced IL-8 release | binding affinity for LPA (in words) [14]: low picomolar range | MI, competitor lipid 18:1 LPA [15]: 100% | cross-reactivity to LPC, PA, 14:0 and 18:1 LPA, cPA, PC [16]: no cross-reactivity | IC50 ([17]; competition ELISA, read-out: 18:1 LPA IC50): > 2000 nM | 18:1 LPA MI ([17]; maximum inhibition): 100% | MI, competitor lipid C1P [18]: 1.0% | IC50 ([19]; competition ELISA, read-out: 20:4 LPA IC50): 161 nM | 20:4 LPA MI ([19]; maximum inhibition): 67% | MI, competitor lipid LPC [20]: 0% | binding affinity for other bioactive lipids and proteins (specificity) [21]: no binding affinity | Apparent Tm (Apparent Tm of antibody): 67 °C at pH7.4
